Test results: article PMC9482650, “Quantitative fragmentomics allow affinity mapping of interactomes” (Nature Communications, 2022)
One block for each binder: values may come before it.

How the values were obtained:
Assay in all cases: holdup assay
Design in all cases: key: below the threshold = too weak to quantify, mostly under pKd 3.1 to 4
Inadl_2, Q8NI35 = target: Inadl_2, Q8NI35
CARD11, Q9BXL7 = target: T1, CARD11, Q9BXL7
T1 sequence (Q9BXL7 662-765, limits assumed, looked up): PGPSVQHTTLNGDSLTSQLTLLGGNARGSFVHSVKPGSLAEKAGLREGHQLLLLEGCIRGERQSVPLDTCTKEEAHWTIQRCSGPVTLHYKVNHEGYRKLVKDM

Inadl_6, Q8NI35 = target: Inadl_6, Q8NI35
DVL3, Q92997 = target: T2, DVL3, Q92997
T2 sequence (Q92997 244-331, limits assumed, looked up): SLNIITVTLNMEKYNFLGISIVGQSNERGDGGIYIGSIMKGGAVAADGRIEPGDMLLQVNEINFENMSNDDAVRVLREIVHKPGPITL

MPDZ_5, O75970 = target: T3, MPDZ_5, O75970
T3 sequence (O75970 695-796, limits assumed, looked up): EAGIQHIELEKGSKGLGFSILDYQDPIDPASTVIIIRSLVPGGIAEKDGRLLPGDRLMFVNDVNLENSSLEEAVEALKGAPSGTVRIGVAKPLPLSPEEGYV

LIN7C, Q9NUP9 = target: T4, LIN7C, Q9NUP9
T4 sequence (Q9NUP9 88-185, limits assumed, looked up): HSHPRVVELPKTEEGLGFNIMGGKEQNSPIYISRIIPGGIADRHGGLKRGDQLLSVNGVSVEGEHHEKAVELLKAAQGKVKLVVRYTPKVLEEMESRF

NHERF4_4, Q86UT5 = target: NHERF4_4, Q86UT5
ARHGEF11, O15085 = target: T5, ARHGEF11, O15085
T5 sequence (O15085 42-136, limits assumed, looked up): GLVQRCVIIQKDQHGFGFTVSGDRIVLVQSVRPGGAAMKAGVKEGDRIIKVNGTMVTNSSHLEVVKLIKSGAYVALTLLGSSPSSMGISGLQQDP

RAPGEF6, Q8TEU7 = target: T6, RAPGEF6, Q8TEU7
T6 sequence (Q8TEU7 525-625, limits assumed, looked up): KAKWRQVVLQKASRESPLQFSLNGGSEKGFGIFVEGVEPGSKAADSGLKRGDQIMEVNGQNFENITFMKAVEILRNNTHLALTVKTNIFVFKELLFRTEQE

SIPA1L2, Q9P2F8 = target: T7, SIPA1L2, Q9P2F8
T7 sequence (Q9P2F8 945-1036, limits assumed, looked up): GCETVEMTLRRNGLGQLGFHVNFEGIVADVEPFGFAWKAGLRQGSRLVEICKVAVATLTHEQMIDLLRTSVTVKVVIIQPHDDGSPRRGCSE

GRIP2_5, Q9C0E4 = target: GRIP2_5, Q9C0E4
ARHGAP21, Q5T5U3 = target: T8, ARHGAP21, Q5T5U3
T8 sequence (Q5T5U3 45-169, limits assumed, looked up): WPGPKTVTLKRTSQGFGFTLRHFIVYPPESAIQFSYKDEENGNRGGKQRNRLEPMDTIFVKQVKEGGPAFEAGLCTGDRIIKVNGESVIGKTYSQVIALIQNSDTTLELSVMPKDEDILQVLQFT

Inadl_3, Q8NI35 = target: Inadl_3, Q8NI35
MPDZ_10, O75970 = target: T9, MPDZ_10, O75970
T9 sequence (O75970 1624-1722, limits assumed, looked up): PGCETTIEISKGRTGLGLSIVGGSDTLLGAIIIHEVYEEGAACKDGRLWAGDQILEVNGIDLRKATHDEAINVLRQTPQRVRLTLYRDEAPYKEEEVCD

HTRA2, O43464 = target: HTRA2, O43464
MAGI1_2, Q96QZ7 = target: MAGI1_2, Q96QZ7
MPP6, Q9NZW5 = target: T10, MPP6, Q9NZW5
T10 sequence (Q9NZW5 125-219, limits assumed, looked up): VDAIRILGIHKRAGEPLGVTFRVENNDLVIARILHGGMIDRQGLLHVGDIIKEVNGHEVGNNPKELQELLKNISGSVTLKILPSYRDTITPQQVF

RADIL, Q96JH8 = target: T11, RADIL, Q96JH8
T11 sequence (Q96JH8 971-1071, limits assumed, looked up): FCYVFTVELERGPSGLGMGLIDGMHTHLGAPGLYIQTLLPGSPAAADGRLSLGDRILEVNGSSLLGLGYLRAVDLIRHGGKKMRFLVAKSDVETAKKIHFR

TJP1_3, Q07157 = target: TJP1_3, Q07157
PDLIM1, O00151 = target: PDLIM1, O00151
IL16_4, Q14005 = target: IL16_4, Q14005
PTPN13_1, Q12923 = target: T12, PTPN13_1, Q12923
T12 sequence (Q12923 1088-1188, limits assumed, looked up): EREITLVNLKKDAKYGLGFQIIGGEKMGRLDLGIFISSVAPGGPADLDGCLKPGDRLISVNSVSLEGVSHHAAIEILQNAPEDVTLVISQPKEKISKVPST

PTPN3, P26045 = target: PTPN3, P26045
ARHGEF12, Q9NZN5-2 = target: ARHGEF12, Q9NZN5-2
GIPC2, Q8TF65 = target: GIPC2, Q8TF65
[1] = plain residues with an end cap or a label only (N-terminal biotin on a linker: ahx)
[2] = plain residues with an end cap or a label only (N-terminal biotin on a linker: ado-ado)
[3] = plain residues with an end cap or a label only (N-terminal biotin on a linker: ttds)

Chain of PDLIM1, O00151 (O00151 1-87): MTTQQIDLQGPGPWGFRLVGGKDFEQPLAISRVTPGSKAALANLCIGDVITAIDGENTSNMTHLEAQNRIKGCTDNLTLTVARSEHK
Chain of TJP1_3, Q07157 (Q07157 416-512): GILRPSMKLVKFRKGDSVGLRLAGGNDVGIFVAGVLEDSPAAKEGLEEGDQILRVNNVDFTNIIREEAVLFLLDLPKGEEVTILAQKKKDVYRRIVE
Chain of Inadl_2, Q8NI35 (Q8NI35 238-335): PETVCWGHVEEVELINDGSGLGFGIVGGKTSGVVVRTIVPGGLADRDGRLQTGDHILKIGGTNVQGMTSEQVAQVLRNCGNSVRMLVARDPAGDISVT
Chain of Inadl_6, Q8NI35 (Q8NI35 1058-1167): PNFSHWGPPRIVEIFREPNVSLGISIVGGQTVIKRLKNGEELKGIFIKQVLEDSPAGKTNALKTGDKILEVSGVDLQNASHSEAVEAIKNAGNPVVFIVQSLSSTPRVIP
Chain of MAGI1_2, Q96QZ7 (Q96QZ7 456-580): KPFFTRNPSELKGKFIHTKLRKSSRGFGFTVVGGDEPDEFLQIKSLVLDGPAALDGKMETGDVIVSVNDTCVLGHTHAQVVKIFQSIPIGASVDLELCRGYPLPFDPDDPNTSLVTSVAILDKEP
Chain of PTPN3, P26045 (P26045 505-587): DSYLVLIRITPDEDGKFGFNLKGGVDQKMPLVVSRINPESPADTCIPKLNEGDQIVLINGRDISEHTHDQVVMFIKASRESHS
Chain of GIPC2, Q8TF65 (Q8TF65 112-203): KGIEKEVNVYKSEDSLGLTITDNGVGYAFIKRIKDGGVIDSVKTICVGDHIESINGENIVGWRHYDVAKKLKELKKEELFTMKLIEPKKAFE
Chain of GRIP2_5, Q9C0E4 (Q9C0E4 544-642): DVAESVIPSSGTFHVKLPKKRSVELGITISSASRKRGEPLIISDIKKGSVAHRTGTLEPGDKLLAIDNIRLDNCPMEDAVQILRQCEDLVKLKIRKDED
Chain of HTRA2, O43464 (O43464 355-458): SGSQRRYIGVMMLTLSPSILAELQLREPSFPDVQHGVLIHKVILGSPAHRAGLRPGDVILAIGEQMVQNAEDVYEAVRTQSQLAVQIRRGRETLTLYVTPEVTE
Chain of IL16_4, Q14005 (Q14005 1229-1329): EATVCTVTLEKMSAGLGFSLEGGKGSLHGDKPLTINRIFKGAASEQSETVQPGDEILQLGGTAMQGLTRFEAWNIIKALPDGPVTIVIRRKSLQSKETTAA
Chain of Inadl_3, Q8NI35 (Q8NI35 359-469): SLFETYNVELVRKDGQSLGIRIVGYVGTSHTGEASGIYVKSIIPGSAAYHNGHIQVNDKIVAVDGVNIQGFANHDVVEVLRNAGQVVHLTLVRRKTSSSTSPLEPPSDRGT
Chain of ARHGEF12, Q9NZN5-2 (Q9NZN5 other isoform, or with tags, fused parts or gaps): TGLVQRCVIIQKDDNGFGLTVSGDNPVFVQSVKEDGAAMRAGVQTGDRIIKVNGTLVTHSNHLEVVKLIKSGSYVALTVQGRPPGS
Chain of NHERF4_4, Q86UT5 (Q86UT5 464-550): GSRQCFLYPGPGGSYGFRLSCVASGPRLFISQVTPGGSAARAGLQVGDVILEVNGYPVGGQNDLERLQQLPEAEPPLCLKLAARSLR

- pKd (Inadl_2, Q8NI35; [1]): below the threshold
- pKd (CARD11, Q9BXL7; [1]): below the threshold
- pKd (Inadl_6, Q8NI35; [1]): below the threshold
- pKd (DVL3, Q92997; [1]): below the threshold
- pKd (MPDZ_5, O75970; [1]): below the threshold
- pKd (LIN7C, Q9NUP9; [1]): below the threshold
- pKd (NHERF4_4, Q86UT5; [1]): below the threshold
- pKd (ARHGEF11, O15085; [1]): below the threshold
- pKd (RAPGEF6, Q8TEU7; [1]): below the threshold
- pKd (SIPA1L2, Q9P2F8; [1]): below the threshold
- pKd (GRIP2_5, Q9C0E4; [1]): below the threshold
- pKd (ARHGAP21, Q5T5U3; [1]): 3.56
- pKd (Inadl_3, Q8NI35; [1]): 3.73
- pKd (MPDZ_10, O75970; [1]): 3.69
- pKd (HTRA2, O43464; [1]): below the threshold
- pKd (MAGI1_2, Q96QZ7; [1]): below the threshold
- pKd (MPP6, Q9NZW5; [1]): below the threshold
- pKd (RADIL, Q96JH8; [1]): below the threshold
- pKd (TJP1_3, Q07157; [1]): below the threshold
- pKd (PDLIM1, O00151; [1]): 3.77
- pKd (IL16_4, Q14005; [1]): below the threshold
- pKd (PTPN13_1, Q12923; [1]): below the threshold
- pKd (PTPN3, P26045; [1]): 3.53
- pKd (ARHGEF12, Q9NZN5-2; [1]): below the threshold
- pKd (GIPC2, Q8TF65; [1]): below the threshold
Binder: RNCSTNDSLL [ADRB2, P07550]

- pKd (Inadl_2, Q8NI35; [2]): below the threshold
- pKd (CARD11, Q9BXL7; [2]): below the threshold
- pKd (Inadl_6, Q8NI35; [2]): below the threshold
- pKd (DVL3, Q92997; [2]): below the threshold
- pKd (MPDZ_5, O75970; [2]): below the threshold
- pKd (LIN7C, Q9NUP9; [2]): 3.68
- pKd (NHERF4_4, Q86UT5; [2]): below the threshold
- pKd (ARHGEF11, O15085; [2]): below the threshold
- pKd (RAPGEF6, Q8TEU7; [2]): below the threshold
- pKd (SIPA1L2, Q9P2F8; [2]): below the threshold
- pKd (GRIP2_5, Q9C0E4; [2]): below the threshold
- pKd (ARHGAP21, Q5T5U3; [2]): below the threshold
- pKd (Inadl_3, Q8NI35; [2]): below the threshold
- pKd (MPDZ_10, O75970; [2]): below the threshold
- pKd (HTRA2, O43464; [2]): below the threshold
- pKd (MAGI1_2, Q96QZ7; [2]): 3.98
- pKd (MPP6, Q9NZW5; [2]): below the threshold
- pKd (RADIL, Q96JH8; [2]): below the threshold
- pKd (TJP1_3, Q07157; [2]): below the threshold
- pKd (PDLIM1, O00151; [2]): below the threshold
- pKd (IL16_4, Q14005; [2]): below the threshold
- pKd (PTPN13_1, Q12923; [2]): 3.71
- pKd (PTPN3, P26045; [2]): 4.49
- pKd (ARHGEF12, Q9NZN5-2; [2]): 4.28
- pKd (GIPC2, Q8TF65; [2]): below the threshold
Binder: RGGFGRQTQI [NCBP2L, A6PVI3]

- pKd (Inadl_2, Q8NI35; [1]): below the threshold
- pKd (CARD11, Q9BXL7; [1]): below the threshold
- pKd (Inadl_6, Q8NI35; [1]): 3.81
- pKd (DVL3, Q92997; [1]): below the threshold
- pKd (MPDZ_5, O75970; [1]): below the threshold
- pKd (LIN7C, Q9NUP9; [1]): 3.72
- pKd (NHERF4_4, Q86UT5; [1]): below the threshold
- pKd (ARHGEF11, O15085; [1]): 4.59
- pKd (RAPGEF6, Q8TEU7; [1]): below the threshold
- pKd (SIPA1L2, Q9P2F8; [1]): below the threshold
- pKd (GRIP2_5, Q9C0E4; [1]): below the threshold
- pKd (ARHGAP21, Q5T5U3; [1]): below the threshold
- pKd (Inadl_3, Q8NI35; [1]): below the threshold
- pKd (MPDZ_10, O75970; [1]): 4.06
- pKd (HTRA2, O43464; [1]): below the threshold
- pKd (MAGI1_2, Q96QZ7; [1]): 4.05
- pKd (MPP6, Q9NZW5; [1]): below the threshold
- pKd (RADIL, Q96JH8; [1]): 4.23
- pKd (TJP1_3, Q07157; [1]): below the threshold
- pKd (PDLIM1, O00151; [1]): below the threshold
- pKd (IL16_4, Q14005; [1]): below the threshold
- pKd (PTPN13_1, Q12923; [1]): below the threshold
- pKd (PTPN3, P26045; [1]): 4.64
- pKd (ARHGEF12, Q9NZN5-2; [1]): 5.02
- pKd (GIPC2, Q8TF65; [1]): below the threshold
Binder: HSGSYLVTSV [APC, P25054]

- pKd (Inadl_2, Q8NI35; [2]): 4.92
- pKd (CARD11, Q9BXL7; [2]): below the threshold
- pKd (Inadl_6, Q8NI35; [2]): below the threshold
- pKd (DVL3, Q92997; [2]): 3.85
- pKd (MPDZ_5, O75970; [2]): 4.34
- pKd (LIN7C, Q9NUP9; [2]): 4.08
- pKd (NHERF4_4, Q86UT5; [2]): below the threshold
- pKd (ARHGEF11, O15085; [2]): 3.95
- pKd (RAPGEF6, Q8TEU7; [2]): below the threshold
- pKd (SIPA1L2, Q9P2F8; [2]): below the threshold
- pKd (GRIP2_5, Q9C0E4; [2]): below the threshold
- pKd (ARHGAP21, Q5T5U3; [2]): 4.09
- pKd (Inadl_3, Q8NI35; [2]): 4
- pKd (MPDZ_10, O75970; [2]): below the threshold
- pKd (HTRA2, O43464; [2]): 3.51
- pKd (MAGI1_2, Q96QZ7; [2]): below the threshold
- pKd (MPP6, Q9NZW5; [2]): 4.43
- pKd (RADIL, Q96JH8; [2]): 4.51
- pKd (TJP1_3, Q07157; [2]): below the threshold
- pKd (PDLIM1, O00151; [2]): below the threshold
- pKd (IL16_4, Q14005; [2]): below the threshold
- pKd (PTPN13_1, Q12923; [2]): below the threshold
- pKd (PTPN3, P26045; [2]): 4.28
- pKd (ARHGEF12, Q9NZN5-2; [2]): below the threshold
- pKd (GIPC2, Q8TF65; [2]): below the threshold
Binder: QKNKDKEYYV [NRXN3_rs746444206, Q9Y4C0]

- pKd (Inadl_2, Q8NI35; [3]): below the threshold
- pKd (CARD11, Q9BXL7; [3]): below the threshold
- pKd (Inadl_6, Q8NI35; [3]): below the threshold
- pKd (DVL3, Q92997; [3]): below the threshold
- pKd (MPDZ_5, O75970; [3]): below the threshold
- pKd (LIN7C, Q9NUP9; [3]): below the threshold
- pKd (NHERF4_4, Q86UT5; [3]): below the threshold
- pKd (ARHGEF11, O15085; [3]): below the threshold
- pKd (RAPGEF6, Q8TEU7; [3]): below the threshold
- pKd (SIPA1L2, Q9P2F8; [3]): below the threshold
- pKd (GRIP2_5, Q9C0E4; [3]): below the threshold
- pKd (ARHGAP21, Q5T5U3; [3]): below the threshold
- pKd (Inadl_3, Q8NI35; [3]): below the threshold
- pKd (MPDZ_10, O75970; [3]): below the threshold
- pKd (HTRA2, O43464; [3]): below the threshold
- pKd (MAGI1_2, Q96QZ7; [3]): below the threshold
- pKd (MPP6, Q9NZW5; [3]): below the threshold
- pKd (RADIL, Q96JH8; [3]): below the threshold
- pKd (TJP1_3, Q07157; [3]): below the threshold
- pKd (PDLIM1, O00151; [3]): below the threshold
- pKd (IL16_4, Q14005; [3]): below the threshold
- pKd (PTPN13_1, Q12923; [3]): below the threshold
- pKd (PTPN3, P26045; [3]): below the threshold
- pKd (ARHGEF12, Q9NZN5-2; [3]): 3.86
- pKd (GIPC2, Q8TF65; [3]): below the threshold
Binder: DPLTPSRSQL [DGKK, Q5KSL6]
